# Like-named read-outs stand apart in the source and are kept apart here.
# Assays:
# human GLP-1 receptor = target: T1, human GLP-1 receptor (Homo sapiens, UniProt P43220); test: GLP-1 receptor binding assay (GLP-1R BA), CHO 6CRE GLP1R luciferase reporter cells; format: cell-based
# T1 construct: expressed in transfected cells; host or cells: CHO K1 (CHO 6CRE GLP1R)
# Procedure: Fusions were buffer exchanged into 100 mM […], 20 mM citrate pH 6.2. […] Suspension culture was maintained for 24 hours. Cells were then diluted into 15 mM HEPES buffer (obtainable from Sigma), containing 2 mM L glutamine (2.5×10^5 cells/ml) and dispensed into 384-well plates containing 10 ul/well of the compound to be assayed. After the addition of assay control, plates were returned to the incubator for 3 h at 37° C. and 5% CO2. After the incubation, steady glo luciferase substrate (obtainable from Promega) was added to the wells as described in the kit and the plates sealed with self-adhesive plate seals (Weber Marking Systems Inc. Cat. No. 607780). Plates were placed in the reader (Viewlux, Perkin Elmer) and pre-incubated for 5 minutes prior to reading the […] and plotting of results. Compound was assayed at a range of concentrations in the presence and absence of 10 uM albumin, allowing a dose response curve to be fitted with and without the albumin.
# [1] = system: diet induced obese (DIO) mice; test: Diet induced obese (DIO) mouse model of obesity; format: in vivo; settings: 0.01, 0.1, 1 mg/Kg sc, 10 days, compared to DOM7h-14 control
# Procedure: This may be predictive for humans. Male C57B1/6 mice (purchased from Taconic) were fattened on 60% kcal high fat irradiated diet for 12 wks and then transferred to the in-house facility. Upon arrival, the mice were individually housed on alpha-dri bedding in a temperature and humidity controlled room (70-72° F., Humidity=48-50%, 5 AM/5 PM light cycle). The diet was changed to 45% high fat diet and the animals acclimated for 18 days. Prior to administration of test compound, mice were injected subcutaneously with saline once daily for three days and food consumption monitored. Mice were blocked and grouped such that body weight and food consumption were not different between or within groups.
# Daily food consumption and body weight were measured daily for 10 days. […] It was therefore concluded that the data from this mouse study supports the hypothesis that DAT0115 would be a good clinical candidate.
# [2] = rat, in vivo
# Procedure: This was followed by ion exchange chromotography on a Resource S column using a 0-1M salt gradient in 20 mM acetate pH5.0. Fractions containing the desired protein were then combined and buffer exchanged into 100 mM NaCl, 20 mM citrate pH6.2. Protein was filter sterilised, buffer exchanged and Qced prior to use in vivo.
# Calculated plasma levels were then used to fit pharmacokinetic parameters using WinNonLin software. Half life after subcutaneous and intravenous administration and bioavailability is outlined in the table 8 below. It was concluded from the results that all three compounds show desirable pharmacokinetic parameters in rat.
# CSA = CSA (Macaca fascicularis, UniProt A2V9Z4); test: Surface plasmon resonance (Biacore, streptavidin chip with biotinylated serum albumin), CSA; format: binding, cynomolgus monkey; settings: Biacore SA chip, HBS-EP buffer; read-out: Affinity (KD) to CSA
# Procedure: (§1) The analysis was performed using a streptavidin chip (SA) coated with biotinylated serum albumin. 200-1000 resonance units (RUs) of each serum albumin was immobilised on the chip. Flow cell 1 was uncoated, flow cell 2 was coated with HSA, flow cell 3 was coated with RSA and flow cell 4 was coated with CSA. A range of concentrations of fusion was prepared (in the range 15.6 nM to 2 μM by dilution into BIACORE HBS-EP buffer (0.01M HEPES, pH7.4, 0.15M NaCl, 3 mM EDTA, 0.005% surfactant P20) and flowed across the BIACORE chip.
# (§2) Affinity (KD) was calculated from the BIACORE traces by fitting on-rate and off-rate curves to traces generated by concentrations of dAb in the region of the KD.
# RSA = RSA (Rattus norvegicus, UniProt P02770); test: Surface plasmon resonance (Biacore, streptavidin chip with biotinylated serum albumin), RSA; format: binding; settings: Biacore SA chip, HBS-EP buffer; read-out: Affinity (KD) to RSA
# Procedure: as §1, §2
# T1 sequence (P43220 24-463): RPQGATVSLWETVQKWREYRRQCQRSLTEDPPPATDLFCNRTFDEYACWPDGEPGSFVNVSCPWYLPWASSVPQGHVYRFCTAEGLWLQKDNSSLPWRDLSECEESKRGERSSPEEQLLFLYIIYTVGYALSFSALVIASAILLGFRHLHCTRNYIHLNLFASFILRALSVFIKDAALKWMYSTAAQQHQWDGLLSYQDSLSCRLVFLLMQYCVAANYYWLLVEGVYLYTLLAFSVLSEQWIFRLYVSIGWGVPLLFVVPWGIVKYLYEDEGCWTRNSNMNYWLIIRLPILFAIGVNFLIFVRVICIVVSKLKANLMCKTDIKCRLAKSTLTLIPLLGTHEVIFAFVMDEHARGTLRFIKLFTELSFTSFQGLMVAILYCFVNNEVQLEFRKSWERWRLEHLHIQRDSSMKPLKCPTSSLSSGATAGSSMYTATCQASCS
# Chain of RSA (P02770 25-608): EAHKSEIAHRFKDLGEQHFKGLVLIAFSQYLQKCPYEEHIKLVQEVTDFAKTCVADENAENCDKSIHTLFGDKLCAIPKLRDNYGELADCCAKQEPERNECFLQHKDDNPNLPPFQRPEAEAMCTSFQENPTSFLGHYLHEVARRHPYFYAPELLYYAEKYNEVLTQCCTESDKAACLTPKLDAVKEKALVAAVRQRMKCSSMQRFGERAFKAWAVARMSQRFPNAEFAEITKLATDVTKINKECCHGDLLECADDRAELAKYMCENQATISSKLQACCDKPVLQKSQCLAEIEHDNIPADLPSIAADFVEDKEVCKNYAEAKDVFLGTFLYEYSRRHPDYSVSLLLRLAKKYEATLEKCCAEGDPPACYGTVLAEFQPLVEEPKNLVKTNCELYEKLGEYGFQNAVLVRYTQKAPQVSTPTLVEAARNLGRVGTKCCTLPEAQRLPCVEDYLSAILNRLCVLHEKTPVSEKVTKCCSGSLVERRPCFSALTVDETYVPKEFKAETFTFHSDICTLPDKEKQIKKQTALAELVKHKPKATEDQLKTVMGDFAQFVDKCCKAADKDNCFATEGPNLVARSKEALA
# Chain of CSA (A2V9Z4 25-608): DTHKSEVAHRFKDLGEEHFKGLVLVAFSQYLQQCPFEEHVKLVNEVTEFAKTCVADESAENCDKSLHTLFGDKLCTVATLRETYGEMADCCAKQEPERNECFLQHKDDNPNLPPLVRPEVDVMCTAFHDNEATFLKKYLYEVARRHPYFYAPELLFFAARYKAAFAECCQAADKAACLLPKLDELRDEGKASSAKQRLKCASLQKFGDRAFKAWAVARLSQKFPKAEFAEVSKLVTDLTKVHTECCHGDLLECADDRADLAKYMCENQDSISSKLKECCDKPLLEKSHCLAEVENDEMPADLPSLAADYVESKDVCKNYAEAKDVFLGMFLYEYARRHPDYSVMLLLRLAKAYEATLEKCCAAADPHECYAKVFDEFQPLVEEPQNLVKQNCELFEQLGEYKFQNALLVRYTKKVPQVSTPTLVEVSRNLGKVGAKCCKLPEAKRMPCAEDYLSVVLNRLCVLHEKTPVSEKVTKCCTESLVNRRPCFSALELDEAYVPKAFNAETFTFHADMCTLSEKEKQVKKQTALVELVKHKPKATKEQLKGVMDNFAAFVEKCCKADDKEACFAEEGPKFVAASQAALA
substance,measurement,setting,value
Exendin 4 (G4S linker)3 DOM7h-14 dAb fusion [DAT0115],EC50,"human GLP-1 receptor; read-out: GLP-1R BA (10 uM albumin) EC50 (pM) n = 2, presence of 10 uM albumin",35 pM
same,EC50,"human GLP-1 receptor; read-out: GLP-1R BA EC50 (pM) n = 3, absence of albumin",8.9 pM
same,body weight,[1],dose dependent reduction
same,food consumption,[1],dose dependent reduction
same,Bioavailability,[2],81%
same,Half-life after intravenous administration,"[2]; iv, 0.3 mg/kg",4.9 h
same,Kd,CSA,2000 nM
same,Kd,RSA,2000 nM
